Data published in the supplement of paper PMC9170038.

Test system: MS2 coat protein
Assay: apparent KD of MS2 coat protein; designed switch direction (-1 OFF switch, 1 ON switch): -1; higher = weaker reporter binding
Summary of the method: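 Normalised cluster fluorescence was curve-fitted, and each design's median over clusters is its apparent KD. Before this, SNAP-549-labelled MS2 coat protein was titrated from 0.7 or 1.5 nM, doubling to 3 µM, over RNA switches transcribed on Illumina chips by stalled E. coli RNA polymerase. Titrations had no input, 200 uM small-molecule ligand, or an oligonucleotide input, and steps lasted 0.8–1.5 h (lowest) to 10–20 min (highest).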

[1] = Eterna round: R95, input ligand: microRNA oligo, concentration not stated
[2] = Eterna round: R95, input ligand: FMN 200 uM
[3] = Eterna round: R95, input ligand: none
[4] = input ligand: microRNA oligo, concentration not stated

| Sequence | apparent KD of MS2 coat protein (input ligand: FMN 200 uM) | apparent KD of MS2 coat protein (input ligand: none) | apparent KD of MS2 coat protein [1] | apparent KD of MS2 coat protein [2] | apparent KD of MS2 coat protein [3] | apparent KD of MS2 coat protein [4] |
| --- | --- | --- | --- | --- | --- | --- |
| AAGAAACAUGAGGAUCACCCAUGUGAGGAUAUGAGCACGACCGUGAGGUCGAUAAGAAUCAGAAGGCACAUUAA [JL-ex1-4.55] (Eterna round: R97, puzzle: Exclusion 1) | 137 nM | 41.8 nM | – | – | – | – |
| CGUGCGUAUGUGAGGAUAUGCUGGUCCUUGGAUCGGCAGAAGGCACAUGAGGAUCACCCAUGUGGUGUCGUACG [salish99_Bmod_ex4_080] (puzzle: Brourd's mod of Exclusion 4) | – | – | 374 nM | – | – | – |
| CGCGACUCAGGAUAUACAUGAGGAUCACCCAUGUGGAACUACUGGGUCGAUAAAAGGUGUAGAAGGGAGGAAAU [Veveesla] (puzzle: Exclusion 3) | – | – | 10.5 nM | 14.3 nM | 13.5 nM | – |
| UGGUAACAUGAGGAUCACCCAUGUCAGGAUAUCAUGAAGAGGAGAGGAGAGGAGAGGAUGAGAAGGGACUAUAU [Excluse me! 13 - Jieux - Exclusion 1] (puzzle: Exclusion 1) | – | – | 30.4 nM | 39 nM | 38.4 nM | – |
| CAUAAUGCAGGAUAUACCAAAUGGCAGUGAAUGCGUGCGCAACAUGAGGAUCACCCAUGUAGAAGGGCACAAGA [Eternabot (Original) Solution 27] (Eterna round: R97, puzzle: Exclusion 2) | 18 nM | 13.5 nM | – | – | – | – |
| ACAUGUAAUGCAGGAUAUCGGACACAUGAGGAUCACCCAUGUGACCAGAGGUAUUGCUAAGAGUCUGAGAAGGGUAUGUACAUG [Ex NG2 #50] (Eterna round: R96, puzzle: Exclusion NG 2) | 20 nM | 19.1 nM | – | – | – | 17.5 nM |
| GGUCGACAUGAGGAUCACCCAUGUCAGGAUAUCGUCACUGGAGCUGCGGCUCCAGUGACGAGAAGGGAUAUAAU [E1/15-A3] (Eterna round: R97, puzzle: Exclusion 1) | 45.3 nM | 38.8 nM | – | – | – | – |
| UUUUUGUCAGGAUAUGAUUAGAUCUACUUCGGUAGAUCUAAUCAGAAGGGACAUGAGGAUCACCCAUGUAGUUU [Mod of Brourd - Jieux - Exclusion 4] (Eterna round: R97, puzzle: Exclusion 4) | 311 nM | 55.8 nM | – | – | – | – |
| GGCGACCUAGGAUAUACAUGAGGAUCACCCAUGUUUAUCUAUUAGAUGAAGACGGGUUGUAGAAGGAGGAUAUU [JL Geriin mod] (puzzle: Exclusion 3) | – | – | 14.6 nM | – | – | – |
| AUGCCCUGAGGAUAUCUCAUCCCGCACAUGAGGAUCACCCAUGUUCUUCUCCGGGCUCCGAGAGAAGGCAGGCCUA [Armus6] (Eterna round: R97, puzzle: Exclusion 5) | 68.2 nM | 102 nM | – | – | – | – |
| CAAUAUUACUGAGGAUAUCCUAGUGUAUUUCAGGGAGAAGGCGGACUCAACAUGAGGAUCACCCAUGUAAGACGGGUACUAGAU [Ex NG1 #17] (Eterna round: R96, puzzle: Exclusion NG 1) | 89.3 nM | 81.4 nM | – | – | – | 42.7 nM |
| AAAUUGGUAGAGGAUAUCGUACAGGAAACGAUGCGAGAAGGCUGCACAUGAGGAUCACCCAUGUUUAGUUGCGA [EX6 #42] (Eterna round: R97, puzzle: Exclusion 6) | 19.2 nM | 19.4 nM | – | – | – | – |
| CCGAGGUGGCGGUCCUAUGACAUGAGGAUCACCCAUGUACCUCGCCACGAGCUUUUUGCUCACCUUAUAAUUCUCGG [Ragequen] (puzzle: Sensor v3, turn-off variant 1) | – | – | 17.6 nM | 18.7 nM | 19.4 nM | – |
| UUGUUGUAUGUAGGAUAUGCGUAUUGUUAUUAUGCAGAAGGACAUGAGGAUCACCCAUGUAUAUUAUUAUUAUAUAUUAUAUAU [Title] (Eterna round: R96, puzzle: Exclusion NG 1) | – | – | – | – | – | 20.1 nM |
| AACCAGCGAGGAUAUGCUUGAGCUUGUUCUGGUUAUAAUCGACUUGAGGAUCACCCAAGUAGAAGGUGCUGACG [EX2 #58] (Eterna round: R97, puzzle: Exclusion 2) | 25.6 nM | 26.9 nM | – | – | – | – |
| ACUGGAUGCAAGCAGGUCCACAUGAGGAUCACCCAUGUUCGUCGGCCAGCAUCGGCUUCUACCGCAAGCCGCGUGCA [Eternabot (L1) Solution 27] (Eterna round: R97, puzzle: Sensor, turn-off variant 1) | 15.9 nM | 18.8 nM | – | – | – | – |

| Sequence | apparent KD of MS2 coat protein (input ligand: FMN 200 uM) | apparent KD of MS2 coat protein (input ligand: none) | apparent KD of MS2 coat protein [1] | apparent KD of MS2 coat protein [2] | apparent KD of MS2 coat protein [3] | apparent KD of MS2 coat protein [4] |
| --- | --- | --- | --- | --- | --- | --- |
| CUCCUCAUGGCGCCUAAACACAUGAGGAUCACCCAUGUACAGGCUUUUCGCCGUCUUAUAAUAAAACCGAGGAUGCG [Soislebice] (puzzle: Sensor v3, turn-off variant 1) | – | – | 300 nM | 45.6 nM | 47.8 nM | – |
| AACUGGCGAGGAUAUACUUGGCAUAUAGCCUAAUUUCGGCUACUUGAGGAUCACCCAAGUAGAAGGUGCACGGC [Anlaxebe] (Eterna round: R97, puzzle: Exclusion 2) | 16.5 nM | 15.1 nM | – | – | – | – |
| CCUCAGUGAGGAUAUGCUGCCGCCGUGAAUACACACCGCGCGUAGAAGGCACAUGAGGAUCACCCAUGUGAAGG [Eternabot (Original) Solution 9] (Eterna round: R97, puzzle: Exclusion 4) | 354 nM | 97.7 nM | – | – | – | – |
| AGCAGACGAGGAUAUAAACGAUAUAACAUGAGGAUCACCCAUGUACGAUCGAUAGAUCGUUUAGAAGGCGUCUGCU [E5/9-A1] (Eterna round: R97, puzzle: Exclusion 5) | 14.5 nM | 13.1 nM | – | – | – | – |
| GGCGAAGUAGGAUAUACAUGAGGAUCACCCAUGUAACCAGAUGGCGUAGGUCUUCUAUGUAGAAGGGCUACGCC [jl-ex3-4.34 ViennaUCT mod] (Eterna round: R97, puzzle: Exclusion 3) | 16.9 nM | 17 nM | – | – | – | – |
| GUGGUGGGUUUUCCGAGUAACAUGAGGAUCACCCAUGUAGAAGUUGAAGGUAUCAAGCGAAUGGCUCGUCAAAUGUG [JR_SV3TOV1_Sub047] (puzzle: Sensor v3, turn-off variant 1) | – | – | 17.5 nM | 42.3 nM | 46.4 nM | – |
| UUUUAACAUGAGGAUCACCCAUGUGAGGAUAUCGAAAUUUAUAUUAAUAUUAAUUAAUCGAGAAGGCACAUUUU [JMF 28] (puzzle: Exclusion 1) | – | – | 97.4 nM | – | – | – |
| CUGAUGUUAGGAUAUCAGGUCACGCGCGAAGGCGCGCGGCAUGAGAAGGAACAUGAGGAUCACCCAUGUGACGA [Reisquso] (Eterna round: R96, puzzle: Exclusion 4) | 305 nM | 43.3 nM | – | – | – | 29.6 nM |
| AUAAUGUCAGGAUAUCAGUCGACUAGCUUCGGCUAGUCGACUGAGAAGGGACAUGAGGAUCACCCAUGUGUUUC [E4/14-A1] (Eterna round: R97, puzzle: Exclusion 4) | 2390 nM | 505 nM | – | – | – | – |
| AUCUUUGCUCGUCAAAUUUACAUGAGGAUCACCCAUGUCUACCUGAGUGCGUCGGGACUGUACGUCAGCCGGUGGAA [Eternabot (L2) Solution 15] (Eterna round: R97, puzzle: Sensor, turn-off variant 1) | 23.3 nM | 25 nM | – | – | – | – |
| UUGAAGAUAGGAUAUACGAGGAGAGGAGAGAGAAGGUGAGGACAUGAGGAUCACCCAUGUAGAAGGAUCAGGAA [JR_Exclu2_Sub065] (puzzle: Exclusion 2) | – | – | 75.4 nM | – | – | – |
| UGUUGUCGCGCAGGAUAUGCAUGAGGAUCACCCAUGCAAUUAGAGUUAACAUGAGGAUCACCCAUGUAGAAGGGCGGGACAACU [pwkr exNG2 2xF5 1xFMN.5] (Eterna round: R96, puzzle: Exclusion NG 2) | 65.1 nM | 54.2 nM | – | – | – | 27.6 nM |
| AUUUUAAUAUAGGAUAUCGAAUUUAUUAUUUAACGAGAAGGAUGAACAUGAGGAUCACCCAUGUGGUAUCAUGG [JL-ex6-3.03] (puzzle: Exclusion 6) | – | – | 263 nM | 214 nM | 178 nM | – |
| AAAACAGUGUAGGAUAUGGCUGGGCUGAAAAUGCUAGAAGGACACACAUGAGGAUCACCCAUGUGACUUCGUGC [Atri] (puzzle: Exclusion 6) | – | – | 12.5 nM | – | – | – |
| GCAAGUUUUUUGUUUUUUAACAUGAGGAUCACCCAUGUAUUUUUAUAGUAUGUGUGAUUAAGAUCUUGUGGUCUUAG [JR_SV3TOV1_Sub101] (puzzle: Sensor v3, turn-off variant 1) | – | – | 92.2 nM | 59.1 nM | 62.9 nM | – |
| GUUUAGUGAGGAUAUGUGGCUUCGAUCGUGCGAAGGAGGCUACAGAAGGCACAUGAGGAUCACCCAUGUUCCUC [salish99_ex4_r4_302] (Eterna round: R97, puzzle: Exclusion 4) | 401 nM | 37.1 nM | – | – | – | – |
